24 molecules from US20260201064A1 (ISU ABXIS, published 2026) can be followed below.

Usually Kd stands for the free concentration of one partner at which half of the binding sites on the other are occupied at equilibrium, for simple one-to-one binding. Broadly, the koff is a measure of how fast the partners let go of each other. The kon is the second-order rate constant of association.

Changes are numbered by the printed parent chain.

First the molecules themselves.
T1: recombinant human ASM protein (human, UniProt P17405 47-630)
T1 construct: Recombinant human ASM in solution; also called acid sphingomyelinase (ASM) protein
T1 sequence: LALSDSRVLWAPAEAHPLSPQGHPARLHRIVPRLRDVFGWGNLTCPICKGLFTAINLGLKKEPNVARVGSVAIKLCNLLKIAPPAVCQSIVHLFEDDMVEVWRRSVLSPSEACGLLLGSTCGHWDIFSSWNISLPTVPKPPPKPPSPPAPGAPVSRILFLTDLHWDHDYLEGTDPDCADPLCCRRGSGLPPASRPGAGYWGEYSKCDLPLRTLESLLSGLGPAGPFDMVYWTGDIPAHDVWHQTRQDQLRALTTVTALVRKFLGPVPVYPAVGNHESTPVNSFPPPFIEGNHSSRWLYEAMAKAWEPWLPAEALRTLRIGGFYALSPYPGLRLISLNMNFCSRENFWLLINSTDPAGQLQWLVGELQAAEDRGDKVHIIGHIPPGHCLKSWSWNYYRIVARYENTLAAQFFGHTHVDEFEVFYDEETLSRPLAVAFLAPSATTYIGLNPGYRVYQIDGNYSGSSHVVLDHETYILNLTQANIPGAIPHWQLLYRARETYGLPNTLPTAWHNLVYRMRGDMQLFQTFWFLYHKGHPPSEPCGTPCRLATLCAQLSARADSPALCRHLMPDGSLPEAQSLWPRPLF

B1: #9104v-L25 (antibody, human IgG4 S228P, lambda, V domains shown)
VH: EVQLLESGGGLVQPGGSLRLSCAASGFTFSNYYMSWVRQAPGKGLEWVSGIYYGSGNIYYADSVKGRFTISRDNSKNTLYLQMNSLRAEDTAVYYCARDTPGFDYWGQGTLVTVSS
VL: QSVLTQPPSASGTPGQRVTISCTGSSSNIGNNAVNWYQQLPGTAPKLLIYYDSFPASGVPDRFSGSKSGTSASLAISGLRSEDEADYYCGAWDYSLSAYVFGGGTKLTVLG
notes: Full-length IgG, lambda
B2: #9104v-L37 (antibody, human IgG4 S228P, lambda, V domains shown)
VH: B1 VH
VL: B1 VL with F54Y, P55R
notes: Full-length IgG, lambda
B3: #9104v-L29 (antibody, human IgG4 S228P, lambda, V domains shown)
VH: B1 VH
VL: B1 VL with P55R, A56S, S57T
notes: Full-length IgG, lambda
B4: #9104v-L19 (antibody, human IgG4 S228P, lambda, V domains shown)
VH: B1 VH
VL: B1 VL with S53L, P55R, A56P
notes: Full-length IgG, lambda
B5: #9104v-L20 (antibody, human IgG4 S228P, lambda, V domains shown)
VH: B1 VH
VL: B1 VL with S53M, P55R, A56P, S57G
notes: Full-length IgG, lambda
B6: #9104v-L33 (antibody, human IgG4 S228P, lambda, V domains shown)
VH: B1 VH
VL: B1 VL with F54Y, A56P, S57Y
notes: Full-length IgG, lambda
B7: #9104v-L23 (antibody, human IgG4 S228P, lambda, V domains shown)
VH: B1 VH
VL: B1 VL with S53Q, P55R, A56P
notes: Full-length IgG, lambda
B8: #9104v-L47 (antibody, human IgG4 S228P, lambda, V domains shown)
VH: B1 VH
VL: B1 VL with F54Y, P55T, A56P
notes: Full-length IgG, lambda
B9: #9104v-L65 (antibody, human IgG4 S228P, lambda, V domains shown)
VH: B1 VH
VL: B1 VL with S53Y, F54Y, P55Q, A56S
notes: Full-length IgG, lambda
B10: #9104v-L63 (antibody, human IgG4 S228P, lambda, V domains shown)
VH: B1 VH
VL: B1 VL with F54H, P55R, A56P, S95W, S97G
notes: Full-length IgG, lambda
B11: #9104v-L27 (antibody, human IgG4 S228P, lambda, V domains shown)
VH: B1 VH
VL: B1 VL with P55R, A56Q
notes: Full-length IgG, lambda
B12: #9104v-L21 (antibody, human IgG4 S228P, lambda, V domains shown)
VH: B1 VH
VL: B1 VL with S53M, P55R, A56P, S57N
notes: Full-length IgG, lambda
B13: #9104v-L32 (antibody, human IgG4 S228P, lambda, V domains shown)
VH: B1 VH
VL: B1 VL with F54Y, P55L, A56P
notes: Full-length IgG, lambda
B14: #9104v-L28 (antibody, human IgG4 S228P, lambda, V domains shown)
VH: B1 VH
VL: B1 VL with P55R, A56R
notes: Full-length IgG, lambda
B15: #9104v-L49 (antibody, human IgG4 S228P, lambda, V domains shown)
VH: B1 VH
VL: B1 VL with S53T, P55R, A56P, S57T
notes: Full-length IgG, lambda
B16: #9104v-L55 (antibody, human IgG4 S228P, lambda, V domains shown)
VH: B1 VH
VL: B1 VL with S53W, F54Y, P55R, A56P, S57T
notes: Full-length IgG, lambda
B17: #9104v-L64 (antibody, human IgG4 S228P, lambda, V domains shown)
VH: B1 VH
VL: B1 VL with S53Y, P55S, A56H
notes: Full-length IgG, lambda
B18: #9104v-L34 (antibody, human IgG4 S228P, lambda, V domains shown)
VH: B1 VH
VL: B1 VL with F54Y, P55Q
notes: Full-length IgG, lambda
B19: #9104v-L39 (antibody, human IgG4 S228P, lambda, V domains shown)
VH: B1 VH
VL: B1 VL with F54Y, P55R, A56P, S57G
notes: Full-length IgG, lambda
B20: #9104v-L46 (antibody, human IgG4 S228P, lambda, V domains shown)
VH: B1 VH
VL: B1 VL with F54Y, P55R, A56S, S57W
notes: Full-length IgG, lambda
B21: #9104v-L52 (antibody, human IgG4 S228P, lambda, V domains shown)
VH: B1 VH
VL: B1 VL with S53V, F54H, P55R, A56P, S57R
notes: Full-length IgG, lambda
B22: #9104v-L38 (antibody, human IgG4 S228P, lambda, V domains shown)
VH: B1 VH
VL: B1 VL with F54Y, P55R, A56P, S57F
notes: Full-length IgG, lambda
B23: #9104v-H02 (antibody, human IgG4 S228P, lambda, V domains shown)
VH: B1 VH with Y53F, N57D, Y59R
VL: B1 VL with F54H, P55R, A56P
notes: Full-length IgG, lambda
B24: #9104v-H05 (antibody, human IgG4 S228P, lambda, V domains shown)
VH: B1 VH with S55G, G56V, N57K
VL: B1 VL with F54H, P55R, A56P
notes: Full-length IgG, lambda

The target of the first assay is T1, recombinant human ASM protein. Nature of the assay: BLI (Octet), antibody on AHC sensor. How it is done:
(§1) The binding affinity, to the ASM protein, of the produced antibodies specifically binding to the ASM protein and the interactive dynamics therebetween were measured using an Octet® QK384 system (Pall Life Sciences).
(§2) First, an antibody specifically binding to the ASM protein produced in Example 1 was captured using an anti-human IgG Fc capture (AHC) biosensor, and 1.25, 2.5, 5, 10, or 20 nM recombinant human ASM protein solution was added thereto. […] The association constant (Kₐ), dissociation constant (Kd), and equilibrium dissociation constant (KD) for each antibody were determined using Octet® analysis software (Pall Life® Sciences). As a result, the binding affinities, to the human ASM protein, of the antibodies with mutations in the heavy chain CDR regions of the antibody #9104 as depicted in Table 1 are shown in Table 5, and the binding affinities, to the human ASM protein, of the antibodies with mutations of the light chain CDR regions in the antibody #9104 as depicted in Table 2 are shown in Table 6.
For orientation: BLI is a label-free optical method that tracks binding on a fibre tip over time.
For B1, the Kd turned out to be 0.882 nM, the koff was found to be 0.000259 s⁻¹ and the on-rate constant (kon) is 294000 M⁻¹ s⁻¹.

Turning to B2, the dissociation constant (Kd) was determined as 1.27 nM, the koff is 0.000327 s⁻¹ and the kon was found to be 259000 M⁻¹ s⁻¹.

Regarding B3, the equilibrium dissociation constant (Kd) turned out to be 1.07 nM, the koff is 0.000292 s⁻¹ and the kon turned out to be 272000 M⁻¹ s⁻¹.

For B4, the Kd is 1.03 nM, the koff is 0.000238 s⁻¹ and the kon came out at 231000 M⁻¹ s⁻¹.

B5: the Kd worked out at 0.658 nM, the off-rate constant (koff) was found to be 0.000162 s⁻¹ and the kon was 247000 M⁻¹ s⁻¹.

On to B6, for which the Kd was found to be 1.27 nM, the off-rate (koff) came to 0.000289 s⁻¹ and the kon was 227000 M⁻¹ s⁻¹.

As to B7, the Kd stood at 0.817 nM, the koff is 0.000185 s⁻¹ and the kon was determined as 226000 M⁻¹ s⁻¹.

As to B8, the Kd turned out to be 1.41 nM, the koff came out at 0.000415 s⁻¹ and the kon was 294000 M⁻¹ s⁻¹.

Consider B9, for which the dissociation constant Kd worked out at 0.532 nM, the koff worked out at 0.000192 s⁻¹ and the kon amounted to 360000 M⁻¹ s⁻¹.

With B10, the Kd turned out to be 1.41 nM, the off-rate (koff) stood at 0.000255 s⁻¹ and the kon amounted to 181000 M⁻¹ s⁻¹.

With B11, the Kd amounted to 1.02 nM, the koff came to 0.000355 s⁻¹ and the on-rate constant (kon) turned out to be 348000 M⁻¹ s⁻¹.

Regarding B12, the Kd worked out at 0.556 nM, the koff was found to be 0.000135 s⁻¹ and the kon was 243000 M⁻¹ s⁻¹.

For the molecule B13, the Kd came out at 1.37 nM, the koff turned out to be 0.000439 s⁻¹ and the kon was found to be 321000 M⁻¹ s⁻¹.

With B14, the Kd was found to be 1.05 nM, the koff was found to be 0.000254 s⁻¹ and the kon is 241000 M⁻¹ s⁻¹.

Turning to B15, the dissociation constant Kd was 0.785 nM, the koff came to 0.000225 s⁻¹ and the kon is 286000 M⁻¹ s⁻¹.

On to B16, for which the Kd came to 0.879 nM, the koff came out at 0.00017 s⁻¹ and the kon was determined as 193000 M⁻¹ s⁻¹.

As for B17, the Kd came out at 0.505 nM, the off-rate constant (koff) was 0.000193 s⁻¹ and the kon was 383000 M⁻¹ s⁻¹.

Regarding B18, the Kd worked out at 1.61 nM, the koff amounted to 0.000493 s⁻¹ and the association rate constant (kon) is 306000 M⁻¹ s⁻¹.

Take B19: the Kd was found to be 1.52 nM, the koff came out at 0.000443 s⁻¹ and the on-rate constant (kon) was 291000 M⁻¹ s⁻¹.

As to B20, the Kd came to 0.88 nM, the koff is 0.000258 s⁻¹ and the on-rate constant (kon) was determined as 293000 M⁻¹ s⁻¹.

As for B21, the equilibrium dissociation constant (Kd) turned out to be 0.982 nM, the off-rate (koff) was 0.000264 s⁻¹ and the kon is 269000 M⁻¹ s⁻¹.

Consider B22, for which the Kd came out at 1.8 nM, the koff was 0.000343 s⁻¹ and the kon worked out at 191000 M⁻¹ s⁻¹.

The next assay shares this target. Nature of the assay: BLI (Octet), antibody on AHC sensor. The source holds these as a separate data set. As for the experimental part:
as §1, §2
In the case of B23, the dissociation constant (Kd) is 1.2 nM, the off-rate (koff) was determined as 0.000333 s⁻¹ and the kon turned out to be 278000 M⁻¹ s⁻¹.

For B24, the Kd was 1.03 nM, the koff came out at 0.000177 s⁻¹ and the kon was found to be 171000 M⁻¹ s⁻¹.
